The test concerns the target T1, INTP5 (biosimilar pegfilgrastim, N-terminally pegylated filgrastim produced by Intas) (human), P09919.
T1 chain: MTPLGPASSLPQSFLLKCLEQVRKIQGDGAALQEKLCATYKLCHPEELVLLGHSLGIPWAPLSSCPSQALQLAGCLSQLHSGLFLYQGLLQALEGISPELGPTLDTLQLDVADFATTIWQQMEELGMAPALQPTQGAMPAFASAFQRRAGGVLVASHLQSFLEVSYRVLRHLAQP
As to the kind of experiment: SEC-MALS; vortexed (stress aggregated) INTP5; TSKgel G3000 SWXL, phosphate buffer with 100 mM NaCl and 10% ethanol, 25°C; 36 μg loaded. To be noted: remark: other sources report otherwise. For orientation: Size exclusion chromatography separates by hydrodynamic size, large species first.

B1: INTP5 (biosimilar pegfilgrastim, N-terminally pegylated filgrastim produced by Intas), P09919-2 31-204 (ligand)
chain: MTPLGPASSLPQSFLLKCLEQVRKIQGDGAALQEKLCATYKLCHPEELVLLGHSLGIPWAPLSSCPSQALQLAGCLSQLHSGLFLYQGLLQALEGISPELGPTLDTLQLDVADFATTIWQQMEELGMAPALQPTQGAMPAFASAFQRRAGGVLVASHLQSFLEVSYRVLRHLAQP
modifications: here or on the partner: 20 kDa monomethoxypolyethylene glycol (mPEG) on the N-terminal amino group of Met1, secondary amine linkage; 20 kDa monomethoxypolyethylene glycol (mPEG) on the N-terminal amino group of Met1, secondary amine linkage
Regarding B1, the stoichiometry N (usually the number of molecules, sites or subunits per partner or assembly) was determined as 2.
